Test results from patent US20150218285A1 (TORAY INDUSTRIES, published 2015).

Legend:
[1] = target: T1, polypeptide set forth in SEQ ID NO: 430 (human); experiment: ELISA on 93 synthetic CAPRIN-1 peptides, purified antibody 0.1 ug/mL
T1 peptide: ATQVPLVSSTSEGYTA
Procedure: Candidate peptides (93 peptides) each consisting of 12 to 16 amino acids of the amino acid sequence of the human CAPRIN-1 protein were synthesized and were each dissolved at a concentration of 1 mg/mL in DMSO. Each peptide was dissolved at a concentration of 30 μg/mL in a 0.1 M sodium carbonate buffer (pH 9.6). The solution was added to a 96-well plate (manufactured by Nunc, Product No. 436006) at 100 μL per well, followed by being left to stand at 4° C. overnight. The solution was removed, and 200 μL of 10 mM ethanolamine/0.1 M sodium carbonate buffer (pH 9.6) was added to each well, followed by being left to stand at room temperature for 1 hour. The solution was removed, and each well was washed with PBS containing 0.5% Tween 20 (PBST) twice to prepare a peptide-immobilized plate. For confirmation, this plate was also provided with a well to which the CAPRIN-1 protein was immobilized in accordance with the method described above. Rabbit anti-CAPRIN-1 monoclonal antibody #1 purified to a concentration of 0.1 ug/mL by a usual method was added to the plate at an amount of 50 μL per well, followed by shaking at room temperature for 1 hour. The solution was removed, and each well was washed with PBST three times. […] The absorbance was measured at 450 nm and 595 nm with an absorption spectrometer. […]

[2] = target: T1, polypeptide set forth in SEQ ID NO: 430; experiment: ELISA as in Example 13(1), purified antibody
[3] = target: T2, polypeptide set forth in SEQ ID NO: 266 (human); experiment: ELISA on immobilised synthetic CAPRIN-1 peptides, culture supernatant
T2 construct: identified by ELISA on synthetic 12-16 aa peptides of human CAPRIN-1
T2 peptide: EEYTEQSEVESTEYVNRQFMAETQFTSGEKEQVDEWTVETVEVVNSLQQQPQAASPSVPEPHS

[4] = target: T3, peptide set forth in SEQ ID NO: 268 (human); experiment: as above
T3 peptide: FTSGEKEQVDEW

[5] = target: T4, CAPRIN-1 protein on the cell surface of human cancer cells (human, UniProt Q14444 2-709); experiment: flow cytometry on Hep3B, HepG2, SK-Hep-1, SW480; culture supernatant; vs isotype control
T4 construct: whole, on cells; endogenous protein of human cancer cell lines
T4 sequence (looked up): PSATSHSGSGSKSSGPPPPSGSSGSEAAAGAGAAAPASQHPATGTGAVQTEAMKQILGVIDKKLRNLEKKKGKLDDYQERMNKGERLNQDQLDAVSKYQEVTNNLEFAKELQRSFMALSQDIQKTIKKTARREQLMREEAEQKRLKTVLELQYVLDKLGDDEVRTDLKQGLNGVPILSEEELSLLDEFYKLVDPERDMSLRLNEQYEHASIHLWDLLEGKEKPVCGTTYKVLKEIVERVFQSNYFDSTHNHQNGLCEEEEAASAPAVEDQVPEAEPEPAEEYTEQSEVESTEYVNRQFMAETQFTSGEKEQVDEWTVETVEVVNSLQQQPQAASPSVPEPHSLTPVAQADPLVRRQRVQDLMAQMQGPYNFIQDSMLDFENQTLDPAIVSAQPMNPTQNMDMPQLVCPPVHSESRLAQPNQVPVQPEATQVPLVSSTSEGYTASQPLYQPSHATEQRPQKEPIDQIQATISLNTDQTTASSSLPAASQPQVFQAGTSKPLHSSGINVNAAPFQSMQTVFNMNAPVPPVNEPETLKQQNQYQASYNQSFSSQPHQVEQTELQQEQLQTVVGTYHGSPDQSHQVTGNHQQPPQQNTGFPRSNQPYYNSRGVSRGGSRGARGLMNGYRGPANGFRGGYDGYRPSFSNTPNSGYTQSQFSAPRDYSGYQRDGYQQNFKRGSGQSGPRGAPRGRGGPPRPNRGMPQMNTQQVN
Procedure: Subsequently, four liver cancer cell lines (Hep3 GB, HepG2, SK-Hep-1, and SW480), which were confirmed to express a CAPRIN-1 gene, were investigated for whether or not a CAPRIN-1 protein is expressed on the surfaces of these cells. 1×10⁶ cells of each cell line were centrifuged with a 1.5-mL micro centrifugation tube. To the cells was added the culture supernatant (100 μL) containing any of mouse monoclonal antibodies #1 to #22 against a CAPRIN-1 protein reacting to cancer cell surface produced in Example 4 and mouse-chicken chimeric antibodies #1 to #3 against a CAPRIN-1 protein produced in the above (2), followed by being left to stand on ice for 1 hour. After washing with PBS, the cells were suspended in a FITC-labeled goat anti-mouse IgG antibody (manufactured by Invitrogen Corporation) diluted by 500-fold with PBS containing 0.1% FBS, followed by being left to stand on ice for 1 hour. After washing with PBS, the fluorescence intensity was measured with FACS Calibur available from Becton, Dickinson and Company. Separately, as a control, the same procedure as in above was performed using an iso-type control antibody, instead of the culture supernatants containing the mouse monoclonal antibodies #1 to #22 against a CAPRIN-1 protein and the mouse-chicken chimeric antibodies #1 to #3. As a result, the fluorescence intensity in the cells to which any of the monoclonal antibodies #1 to #22 and the mouse-chicken chimeric antibodies #1 to #3 was added was 20% or more higher than that in the control in every case. Specifically, in the case of using mouse-chicken chimeric antibody #1, the fluorescence intensity was enhanced by 200% or more in both SK-Hep-1 and Hep3B. […] The rate of increase in the fluorescence intensity is represented by the rate of increase in the mean fluorescence intensity (MFI value) in each cell and is calculated by the following calculation formula: […]

[6] = target: T4, CAPRIN-1 protein on the cell surface of …; experiment: cell-based or functional assay
[7] = target: T5, polypeptide set forth in SEQ ID NO: 431 (human); experiment: ELISA on immobilised synthetic CAPRIN-1 peptides, culture supernatant
T5 peptide: VERVFQSNYFDSTHNH

[8] = target: T4, CAPRIN-1 protein on the cell surface of …; experiment: flow cytometry on Hep3B, HepG2, SK-Hep-1, SW480; antibody 20 ug/mL; control: secondary antibody only
Procedure: Four human liver cancer cell lines (Hep3 GB, HepG2, SK-Hep-1, and SW480) were investigated whether or not a CAPRIN-1 protein is expressed on the cell surface using mouse anti-CAPRIN-1 monoclonal antibodies #30 to #36. 5×10⁵ cells of each of the liver cancer cell lines were centrifuged with a 1.5-mL micro centrifugation tube. The cells were subjected to reaction with each of mouse anti-CAPRIN-1 antibodies #30 to #36 at a final concentration of 20 μg/mL, followed by being left to stand on ice for 1 hour. After washing with PBS, the cells were reacted with a 100-fold diluted Alexa488-labeled goat anti-mouse IgG antibody (manufactured by Invitrogen Corporation), followed by being left to stand on ice for […]. After washing with PBS, the fluorescence intensity was measured with FACS Calibur available from Becton, Dickinson and Company. Separately, the cells were subjected to reaction with only the secondary antibody as a negative control.

[9] = target: T6, polypeptide comprising the amino acid sequence set forth in SEQ ID NO: 269 (human); experiment: ELISA on immobilised synthetic CAPRIN-1 peptides, culture supernatant
T6 peptide: PPVNEPETLKQQNQYQAS

B1: rabbit anti-CAPRIN-1 monoclonal antibody #1 (antibody, V domains shown)
VH: QSLEESGGDLVKPGASLTLTCTASGFSFSGSYYMSWVRQAPGKGLEWIAYIYIGDGVTAYANWAKGRFTISKASSTTVTLQMTSLTAADTATYFCARGNKLWGPGTLVTVSS
VL: DVVMTQTPASVEAAVGGTVTIKCQASQSISSYLAWYQQKPGQPPKRLIYDASNLDSGVPSRFKGSGSGTDFTITISDLECADAATYYCQCTAVSSATIYGNAFGGGTEVVVK
notes: rabbit hybridoma antibody
binding result [1]: binds

B2: human-rabbit chimeric anti-CAPRIN-1 antibody #1 (antibody, V domains shown)
VH: B1 VH
VL: B1 VL
notes: also called human-rabbit chimeric anti-CAPRIN-1 monoclonal antibody #1
binding result [2]: binds

B3: mouse monoclonal antibody #5 (antibody, V domains shown)
VH: DAELVKPGASVKISCKASGYTFTDHSIHWVQQKPEQGLEWIGYISPGNGNIKYNEKFKGKATLTADKSSSTAYMQLNSLTSEDSAVYFCKRSLGRGGPYYFDYWGQGTTVTVSS
VL: DIVLTQAAPSLPVTPGESVSISCRSSKSLLHSNGNTYLYWFLQRPGQSPQLLIYRMSNLASGVPDRFSGSGSGTAFTLRISRVEAEDVGVYYCMQHREYPVTFGSGPN
notes: mouse hybridoma antibody
binding result [3]: binds | binding result [4]: binds | rate of increase in mean fluorescence intensity [5]: ≥ 20% | cytotoxicity (ADCC, 51Cr release) on SK-Hep-1 [6]: ≥ 12%

B4: mouse anti-CAPRIN-1 antibody #34 (antibody, V domains shown)
VH: GAELVRPGTSVKVSCKASVYAFTNYLIEWVKQRPGQGLEWIGVINPKSGGTKYNEKFRGKATLTADKSSSTAYMQLSSLTSGDSAVYFCAITGTDYWGQGTTLTVSS
VL: QGTRCDIQMTQTTSSLSASLGDRVTISCSASQGINNYLNWYQQKPDGTVKLLIYYTSSLRSGVPSRFSGSGSGTDYSLTISNLEPEDVATYYCQQYSKLPRTFGGGTKLEIKR
notes: mouse hybridoma antibody; also called mouse anti-CAPRIN-1 monoclonal antibody #34; mouse anti-CAPRN-1 antibody #34
binding result [7]: binds | increase in fluorescence intensity over the control [8]: ≥ 35%

B5: mouse anti-CAPRIN-1 antibody #31 (antibody, V domains shown)
VH: GPELVKPGASVKISCKASGYSFTGYFMNWVMQSHGKSLEWIGRINPYNGDTFYNQKFKGKATLTVDKSSSTAHMELRSLASEDSAVYYCARRIHYYYGSSYYAMDYWGQEPHH
VL: DVQITQSPSYLAASPGETITINCRASKSISKYLAWYQEKPGKTNKLLIYSGSTLQSGIPSRFSGSGSGTDFTLTISSLEPEDFAMYYCQQHNEYPWTFGGGTKLEIKR
notes: mouse hybridoma antibody; also called mouse anti-CAPRIN-1 monoclonal antibody #31
increase in fluorescence intensity over the control [8]: ≥ 35%

B6: human-chicken chimeric antibody #3 (antibody, human IgG1, kappa, V domains shown)
VH: AVTLDESGGGLQTPGGALSLVCKASGFTFSGYDMLWVRQAPGKGLEWVAGIGSTGGGTDYGAAVKGRATISRDNGQSTVRLQLNNLRAEDTATYYCAKVAGGCNSGYCRDSPGSIDAWGHGTEVIVSA
VL: AVTQQPASVSANPGETVKITCSGGGSRNYYGWYQQKSPGSVPVTVIYYDDQRPSNIPSRFSGALSGSTSTLTITGVQADDEAVYFCGSADSNTYEGSFGAGTTLTVLT
notes: produced similarly to human-chicken chimeric antibody #1 from chicken monoclonal antibody #3; human IgG1 constant domains; also called human-chicken chimeric monoclonal antibody #3
binding result [9]: binds | cytotoxicity (ADCC, 51Cr release) on SK-Hep-1 [6]: ≥ 12%
